± gives the standard deviation of the averaged measurements.
Test system: Saccharomyces cerevisiae
Test: protein stability index of tFT-peptide fusion (C-terminal peptide) (PSI (0-1 scale)); higher = more stable (slower turnover)
Conditions: genetic background: cdc34-1; temperature: 37 C
Procedure: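 MPS profiling in S. cerevisiae of the tFT-X12 degron library: putative degron peptides plus stable controls, 12 aa, fused to the C-terminus of a sfGFP-mCherry timer. Cells are FACS-sorted into 8 mCherry/sfGFP bins and deep-sequenced. PSI runs from 0 (unstable) to 1 (stable). Backgrounds are wild type, das1Δ and doa10Δ at 30 °C, and wild type, das1Δ, cdc34-1 and cdc53-1 at 37 °C; 2-3 technical replicates each.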
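Further: PSI is a weighted mean of sequencing reads over stability bins, variants kept only with over 10 reads, mCherry proximal and sfGFP distal, peptide attached via GGGS linker.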

| Sequence | protein stability index |
| --- | --- |
| ISLVLVVIEVQR | 0.0774 ± 0.045 |
| ISVFLFAFFFIP | 0.447 ± 0.0098 |
| ISVQKRRAIEII | 0.586 ± 0.008 |
| IVCFCFFLMFSL | 0.319 ± 0.063 |
| IVVLCHVFLDLG | 0.048 ± 0.01 |
| IWCQVGAFLVVF | 0.218 ± 0.0075 |
| IYVLLDVNYHLP | 0.509 ± 0.024 |
| IYVSVMLLRYRF | 0.41 ± 0.042 |
| KCKIWFREVSMN | 0.658 ± 0.018 |
| KGSFDLPTFSLF | 0.726 ± 0.026 |
| KICAVRVIMDWC | 0.459 ± 0.059 |
| KIKVFHEMVLMC | 0.37 ± 0.059 |
| KKNKIYKERKNI | 0.702 ± 0.17 |
| KKNTQKKIKLSC | 0.629 ± 0.0068 |
| KKRYSEIFKKNG | 0.694 ± 0.057 |
| KLLLTCTFLVFP | 0.448 ± 0.022 |
| KNKRQKNTIRKQ | 0.669 ± 0.017 |
| KQNKKHKKLKSN | 0.543 ± 0.051 |
| KRLRDFLVIMCS | 0.198 ± 0.024 |
| KTLCFLCRTRNS | 0.671 ± 0.025 |
| KVRVRTTCWRKL | 0.617 ± 0.039 |
| KYHLAAQLLVLL | 0.602 ± 0.022 |
| LAFAGRCGLYVC | 0.57 ± 0.064 |
| LAGLFICTLISC | 0.159 ± 0.0021 |
| LASCRIVVIYSI | 0.521 ± 0.029 |
| LCFEQRYIGVLV | 0.305 ± 0.045 |

| Sequence | protein stability index |
| --- | --- |
| LCFVSTWVWSVG | 0.498 ± 0.055 |
| LCWLCIRWSRVV | 0.368 ± 0.044 |
| LDIFRKLVIVLC | 0.0767 ± 0.013 |
| LEALRFTFYHFF | 0.683 ± 0.038 |
| LEGRVLRIFCVT | 0.496 ± 0.0051 |
| LFFRCVFRISFF | 0.274 ± 0.015 |
| LFGIDIVITYLL | 0.31 ± 0.011 |
| LFILRPVVGVLN | 0.531 ± 0.034 |
| LFIWFVSSPFYC | 0.517 ± 0.025 |
| LFIYSVCSYYYE | 0.31 ± 0.037 |
| LFRLPSPLLFFL | 0.559 ± 0.0067 |
| LFSAFFPLLFLS | 0.291 ± 0.022 |
| LFYATRLLFLCI | 0.415 ± 0.034 |
| LGHSLVRFVYCF | 0.46 ± 0.023 |
| LGVGVVPEFFVV | 0.659 ± 0.028 |
| LLFVVGTGRWVG | 0.665 ± 0.022 |
| LLHSLILLEWVF | 0.148 ± 0.01 |
| LLIFGLLAVPSP | 0.585 ± 0.0093 |
| LLLAMLLWVSTM | 0.422 ± 0.0061 |
| LLLFLLLPPFPF | 0.543 ± 0.034 |
| LLLLLPLYLLPI | 0.24 ± 0.031 |
| LLLSLYFCFIFF | 0.207 ± 0.025 |
| LLLSSILLILSS | 0.357 ± 0.033 |
| LLPLLLFFSLLR | 0.223 ± 0.019 |
| LLPLSLSLLLSV | 0.52 ± 0.015 |
| LLSAVAHCYFIA | 0.595 ± 0.034 |

| Sequence | protein stability index |
| --- | --- |
| LLSLTLALPLAA | 0.392 ± 0.0064 |
| LLVFSSPPPAKF | 0.91 ± 0.036 |
| LLVSCPLVLRFR | 0.426 ± 0.048 |
| LLYSLVALGVCV | 0.329 ± 0.0041 |
| LMFCPPLLRVAL | 0.44 ± 0.023 |
| LMFSRSLFIVKC | 0.435 ± 0.035 |
| LMPYIIFLMSFQ | 0.458 ± 0.026 |
| LPPSVLPLPPSH | 0.647 ± 0.053 |
| LPPVPLRLTLVL | 0.448 ± 0.0077 |
| LPRDPLHAQIAS | 0.647 ± 0.019 |
| LQFSLPCFLLIF | 0.145 ± 0.0042 |
| LQLRKQILLLMT | 0.348 ± 0.022 |
| LQSVLRGIDCCA | 0.347 ± 0.0089 |
| LRCIFVVVSFTP | 0.0799 ± 0.045 |
| LRCLAIFLYRAF | 0.576 ± 0.045 |
| LRRQAFRYRTLL | 0.458 ± 0.037 |
| LRTLVFIWFMYV | 0.296 ± 0.045 |
| LRTYSFTIGTLC | 0.616 ± 0.052 |
| LSALMVLSFILV | 0.377 ± 0.016 |
| LSFRLSYPLPIY | 0.418 ± 0.017 |
| LSIALPFPVLCR | 0.0213 ± 0.0045 |
| LSITQLFCLCAV | 0.317 ± 0.0048 |
| LSLSLQVVVFSM | 0.438 ± 0.034 |
| LSPYPLTFLFSQ | 0.693 ± 0.07 |
| LSWWCFLVLLHW | 0.172 ± 0.0081 |
| LTPKRLTVCRLC | 0.553 ± 0.066 |

Same assay, conditions: genetic background: cdc53-1; temperature: 37 C

| Sequence | protein stability index |
| --- | --- |
| ISLVLVVIEVQR | 0.285 ± 0.042 |
| ISVFLFAFFFIP | 0.553 ± 0.024 |
| ISVQKRRAIEII | 0.6379 ± 0.0021 |
| IVCFCFFLMFSL | 0.34 ± 0.011 |
| IVVLCHVFLDLG | 0.128 ± 0.033 |
| IWCQVGAFLVVF | 0.257 ± 0.0071 |
| IYVLLDVNYHLP | 0.527 ± 0.0074 |
| IYVSVMLLRYRF | 0.428 ± 0.018 |
| KCKIWFREVSMN | 0.7475 ± 0.007 |
| KGSFDLPTFSLF | 0.776 ± 0.018 |
| KICAVRVIMDWC | 0.542 ± 0.012 |
| KIKVFHEMVLMC | 0.587 ± 0.0097 |
| KKNTQKKIKLSC | 0.733 ± 0.023 |
| KKRYSEIFKKNG | 0.728 ± 0.025 |
| KLLLTCTFLVFP | 0.545 ± 0.024 |
| KNKRQKNTIRKQ | 0.682 ± 0.056 |
| KQNKKHKKLKSN | 0.718 ± 0.051 |
| KRLRDFLVIMCS | 0.2289 ± 0.0013 |
| KTLCFLCRTRNS | 0.73 ± 0.011 |
| KVRVRTTCWRKL | 0.686 ± 0.038 |
| KYHLAAQLLVLL | 0.649 ± 0.015 |
| LAFAGRCGLYVC | 0.679 ± 0.016 |
| LAGLFICTLISC | 0.176 ± 0.0055 |
| LASCRIVVIYSI | 0.52 ± 0.15 |
| LCFEQRYIGVLV | 0.38376 ± 5e-05 |
| LCFVSTWVWSVG | 0.5203 ± 0.0015 |

| Sequence | protein stability index |
| --- | --- |
| LCWLCIRWSRVV | 0.543 ± 0.023 |
| LDIFRKLVIVLC | 0.0777 ± 0.02 |
| LEALRFTFYHFF | 0.7891 ± 0.0068 |
| LEGRVLRIFCVT | 0.593 ± 0.03 |
| LFFRCVFRISFF | 0.266 ± 0.0095 |
| LFGIDIVITYLL | 0.459 ± 0.064 |
| LFILRPVVGVLN | 0.53 ± 0.021 |
| LFIWFVSSPFYC | 0.5998 ± 0.0054 |
| LFIYSVCSYYYE | 0.411 ± 0.053 |
| LFRLPSPLLFFL | 0.611 ± 0.029 |
| LFSAFFPLLFLS | 0.353 ± 0.0036 |
| LFYATRLLFLCI | 0.432 ± 0.028 |
| LGHSLVRFVYCF | 0.498 ± 0.024 |
| LGVGVVPEFFVV | 0.729 ± 0.014 |
| LLFVVGTGRWVG | 0.736 ± 0.011 |
| LLHSLILLEWVF | 0.146 ± 0.02 |
| LLIFGLLAVPSP | 0.587 ± 0.023 |
| LLLAMLLWVSTM | 0.361 ± 0.11 |
| LLLFLLLPPFPF | 0.59 ± 0.006 |
| LLLLLPLYLLPI | 0.177 ± 0.037 |
| LLLSLYFCFIFF | 0.152 ± 0.004 |
| LLLSSILLILSS | 0.409 ± 0.0057 |
| LLPLLLFFSLLR | 0.158 ± 0.02 |
| LLPLSLSLLLSV | 0.541 ± 0.0062 |
| LLSAVAHCYFIA | 0.713 ± 0.0051 |
| LLSLTLALPLAA | 0.434 ± 0.014 |

| Sequence | protein stability index |
| --- | --- |
| LLVFSSPPPAKF | 0.901 ± 0.018 |
| LLVSCPLVLRFR | 0.41 ± 0.02 |
| LLYSLVALGVCV | 0.314 ± 0.011 |
| LMFCPPLLRVAL | 0.4421 ± 0.0031 |
| LMFSRSLFIVKC | 0.438 ± 0.051 |
| LMPYIIFLMSFQ | 0.496 ± 0.017 |
| LPPSVLPLPPSH | 0.72 ± 0.013 |
| LPPVPLRLTLVL | 0.474 ± 0.031 |
| LPRDPLHAQIAS | 0.696 ± 0.0026 |
| LQFSLPCFLLIF | 0.134 ± 0.022 |
| LQLRKQILLLMT | 0.36 ± 0.011 |
| LQSVLRGIDCCA | 0.375 ± 0.016 |
| LRCIFVVVSFTP | 0.2 ± 0.025 |
| LRCLAIFLYRAF | 0.6238 ± 0.0039 |
| LRRQAFRYRTLL | 0.552 ± 0.031 |
| LRTLVFIWFMYV | 0.481 ± 0.058 |
| LRTYSFTIGTLC | 0.637 ± 0.027 |
| LSALMVLSFILV | 0.4332 ± 0.0036 |
| LSFRLSYPLPIY | 0.47 ± 0.025 |
| LSIALPFPVLCR | 0.038 ± 0.03 |
| LSITQLFCLCAV | 0.337 ± 0.02 |
| LSLSLQVVVFSM | 0.497 ± 0.022 |
| LSPYPLTFLFSQ | 0.7506 ± 0.0056 |
| LSWWCFLVLLHW | 0.14 ± 0.044 |
| LTPKRLTVCRLC | 0.758 ± 0.012 |

— the supplement of paper PMC10724198
